# Assay results reported in the supplement of paper PMC9170038.
# Test system: K4 kissing-loop RNA reporter
# Assay: apparent KD of K4 kissing-loop reporter; higher = weaker reporter binding
# Details: Eterna round: R107
# Procedure: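 RNA-MaP round R107: designed RNA switches with theophylline, tryptophan, arginine or FMN aptamers are transcribed on-chip within common flanks. They are titrated with a labelled K4 kissing-loop RNA reporter in RNA-MaP buffer (100 mM Tris pH 7.5, 80 mM KCl, 4 mM MgCl2), without ligand or with the indicated ligand. Median apparent KD per design.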
# [1] = input ligand: theophylline 20 uM
# [2] = input ligand: tryptophan 2.4 mM
# 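Further: bound reporter read as fluorescence of individual clusters on recovered sequencing chips by microscopy, with normalized cluster intensities fitted with a binding model.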
Sequence,apparent KD of K4 kissing-loop reporter (input ligand: FMN 200 uM),apparent KD of K4 kissing-loop reporter (input ligand: arginine 13.2 mM),apparent KD of K4 kissing-loop reporter (input ligand: none),apparent KD of K4 kissing-loop reporter [1],apparent KD of K4 kissing-loop reporter [2]
AGCGUCUGAAGAGGAUAUGACCAGUGAUGUUGGUUACUACCUCAAAUUAGUGUCGCGCCAAAAUCGUCAGAAGGCUUCGGCGCGC [Ussoes],135 nM,92 nM,98.6 nM,96.7 nM,92.9 nM
AGCUCAGAGUGACUCGAUAAGAGUCACAAACGAGGACCGGUACGGCCGCCACUCGAAAUAAGGAGAGUGAUGUUCUCGCUGAGCA [FiskerMod 8 - Jieux - Same State Tryptophan A],454 nM,81.5 nM,124 nM,35.1 nM,345 nM
AGGACGGUUAUGGAUACCAGUCCGGAACUUGUCCAUGGAGUGAUGUUCCGUCCAGCUCCGGACCCUUGGCAGCCAGACUGCUGAA [theeternabot_sameState_KL_Theo_B_41],185 nM,189 nM,192 nM,138 nM,198 nM
AGGAUGUAGUGAUGUUAUAUAAAAGGUAAACGAGGACCGGUACGGCCGCCACUCGAAGCGGCUGCUAAGAGGGAAAGAAGAGGAA [ExTryptoA.E],496 nM,464 nM,570 nM,684 nM,371 nM
AGGCACGAGCAAGGAUAUCGAGUAGAGUGAUGUUCUGCCUGGGUUGGCUCGAAAGAGCCUUCUCAGCGAGAAGGUGCUCGUGCCU [#2 Same State - FMN A Attempt #21 (HarryS)],248 nM,604 nM,982 nM,638 nM,751 nM
AGGCACGAGCAAGGAUAUUGAGUAGAGUGAUGUUCUGCCUAAGUUGGCUCGAAAGAGCCUUCUUAGCGAGAAGGUGCUCGUGCCU [#2 Same State - FMN A Attempt #26 (HarryS)],297 nM,534 nM,666 nM,812 nM,763 nM
AGGGUUAAUUAGUCUUUUUUCACAUUAAGUCAGGAUAUCGUAUUUUCGAGAAGGGACACAUGCUAGUGAUGUUAGCUAUUUCCCA [#02 K4 FMN A Exclusion],77.3 nM,115 nM,90.6 nM,122 nM,86.2 nM
AGGUCACUACUACAGUGAUGUUGUGGAGAGCAGGAUAUGCAGAAAUGCAGAAGGGCUCGCUCUCAGUGACCGAAUGAAACAUUCA [Omei KL FMN A SS A v8],663 nM,724 nM,712 nM,566 nM,838 nM
AGGUCCGAGCCCGGAAGGGCUCGGACCUGUUAGGAUAUGACGUGAUUCAGAAGGGAUGGGUGGAGUGAUGUUCCACCCGAGAGGG [#2 Same State - FMN A Attempt #20 (HarryS)],105 nM,89.3 nM,91.2 nM,102 nM,109 nM
AGUACAAUGGCGGCCGCCACUCAACGCAGAUCAAAGAUCUGCAUUCACUCAGUGAUGUUGAGUGAGAGGACCGGGCCUUUGUACA [Omei KL Tryp B SS B v1],701 nM,581 nM,637 nM,580 nM,189 nM
AGUACGGACGCGGCCGCCACUCAGAAGAAGACGGUAGUGAUGUUACUGAUGGUGAGAACAAUAAAGAGGACCGGGUGUCGUGCAA [#06 K4 Tryptophan B Same State],324 nM,464 nM,523 nM,370 nM,304 nM
AGUAGAGCAUCAGAUACCAGACUGAACUGAUGGUAAGGAGUGAUGUUCCUUAAUCAGCUAGUCCCUUGGCAGCUGAUAAUAGUCA [Theo B SS t3],251 nM,253 nM,268 nM,183 nM,222 nM
AGUCCACUCUAAAGAGUGGACCUAAGGGAUACCAGUGAUGUUGGUCACCCUUGGCAGCCCGCUGUCAUCGAUAAAGAUGGCAGUA,125 nM,107 nM,112 nM,121 nM,117 nM
AGUCCACUCUAAAGAGUGGACCUAAGGGAUACCAGUGAUGUUGGUCACCCUUGGCAGCCCUCUGUCAUCGAUAAAGAUGGCAGAA,142 nM,110 nM,114 nM,112 nM,108 nM
AGUGAAGUUAGUGAUGUGUGAGUUUGGGAAGGAGCGCCGAGGAAGGCAGGUAGGUCGCCCAGUGAUGUUGGUGUAAGGAUGAGAG [whbob_Ex_Arginine_A_2t123],451 nM,332 nM,311 nM,262 nM,303 nM
AGUGAUAUAUGAGGAUAUGGGUUUGUUAAUGAGUUUGUUUUAGUGUUGUUUGGUUAGUGAUGUUAUUUAGAAGGCGUGAGUGAUG [vxxexmullin],130 nM,80.5 nM,82.4 nM,127 nM,72 nM
AGUGCACUGUCAGGAUAUAUACAGUGAUGUUGUGUAUGUCAGCAAGUCAAAGACUUGCUAUUCUGUGUAGAAGGGACUGUGUACA [Omei KL FMN B Exc A v1],607 nM,203 nM,230 nM,207 nM,221 nM
AGUGGACGUGUCUAGAGUGAUGUUCCGGAUACCAGACACGAAAGUGUCCCUUGGCAGCCGGAGUGAUGUUCUGGCGUUCACUAAA [Omei KL Theo A Exc B v6],647 nM,296 nM,549 nM,459 nM,440 nM
AGUGGACGUGUCUGGAGUGAUGUUCUGGAUACCAGACACGAAAGUGUCCCUUGGCAGCCGGAGUGAUGUUCCGGCGUUCACUAAA [Omei KL Theo A Exc B v5],462 nM,239 nM,402 nM,396 nM,307 nM
AGUGUGCAAAAGCACACUCAGCACAAGGACAAGGAUAUCUACUAAUAGAGAAGGUGUCCUUUCCUUAGUGAUGUUAAGGAGCUGA [Omei KL FMN A SS D v1],238 nM,526 nM,700 nM,624 nM,693 nM
AGUGUUGUAUGACGGUUUGUCACUUAGGAUCAGGAUAUAUAAACAAAUAGAAGGGAUGGCGGAGUGAUGUUCCGCCGGCCGCCAU [FMN A Exl V9],110 nM,101 nM,104 nM,106 nM,94.3 nM
AUAAUUAUGACGGCCGCCACUGAGAGUAGUGAUGUUACUCUUUUCCUUUAGUAAUAAUUUUUUAUCAGGACCGGGUUAUUUGAAU [JR_Nu_ExcTryptoB_Sub027],68.7 nM,67.2 nM,70.2 nM,64.4 nM,83.9 nM

Sequence,apparent KD of K4 kissing-loop reporter (input ligand: FMN 200 uM),apparent KD of K4 kissing-loop reporter (input ligand: arginine 13.2 mM),apparent KD of K4 kissing-loop reporter (input ligand: none),apparent KD of K4 kissing-loop reporter [1],apparent KD of K4 kissing-loop reporter [2]
AUAGGCAUAGCCCGAGUGAUGUUCGACGAUACCAGCCUCGAUAGAGGCCCUUGGCAGCGUAAAUGAUCAUGAAGCCAAGGAAUUA [whbob_Ex_Theo_A_th70],360 nM,335 nM,408 nM,394 nM,277 nM
AUAUAAGUCGGAGGAUAUCCAGUGAUGUUAUGUUGUGAUGUUUAGUGAUGUUAGGCAUCAGUGAAGGGAGAAGGCCGUAAGUGAU [APPLE],68.6 nM,53.3 nM,91.1 nM,89.2 nM,78.9 nM
AUAUCGGUUGAGAGUGAUGUUCCUUGUGUUCGAGGACCGGUACGGCCGCCACUCGGGUAGAAAAUAAAAGAUGUGUUUGAUUUUU [BDazzled - #14 SS Tryptophan A],243 nM,91.5 nM,203 nM,402 nM,221 nM
AUAUGCUUAGCGGCCGCCACUCCAAUUGGCCGAAAGGCCUGAUACCGAGUGAUGUUCGGUUGGAGGAGGACCGGGCUAGGCGUAU [#2 Exclusion - Tryptophan B Attempt #1 (HarryS)],168 nM,139 nM,169 nM,149 nM,141 nM
AUCCGGAGUGCGGCCGCCACUAUCGGAUAGAGUGAUGUUCUAUCCGGCCUUAAAGGCGCGAACGAUAGGACCGGGCACUCUAAAU [Quatinti],121 nM,124 nM,136 nM,128 nM,122 nM
AUGCUUCAGUAAGGAUAUGGAGGCAGAGUGAAGAUUGUCGUGUAACCGAGUUAAGUGAUGUUUGAUCCAGAAGGUACAUGCGUGU [theeternabot_exclusion_KL_FMN_B_15],926 nM,561 nM,885 nM,379 nM,605 nM
AUGUAUGAAUUAGGAUAUCGUGAGCUUUGCAUAUAUAUGAUAAAUGGAUAUGUCGUAGUGAUGUUACGAGAAGGAGUGUGGAGUA [KL-XFMN-B3],52.4 nM,55.7 nM,43.9 nM,65.8 nM,37.4 nM
AUGUCGUUAUAGUGAGUGAUGUUCACUGUGCGAGGACCGGUACGGCCGCCACUCGAGAGUGGUGGACACUGAGUCACUCUGACAC [Tryp A Ex t2],124 nM,123 nM,130 nM,111 nM,283 nM
AUGUCUAAUACGGCCGCCACUCGAGCAGUGAUGUUGCUCAGUAAUGGUCAUCGUCGUACAUGCCCGAGGACCGGGUAUUGAUUUG [Remain],147 nM,122 nM,140 nM,145 nM,175 nM
AUUAAGAUAUGAGUGAUGUUUAUGUCCGAAGGAGCGUGCGAAAGUACAGGUAGGUCGCGGAUGUGAGUGAUGUUUAUGUAAGCGU [KL-XArg-A15 #analogue],109 nM,33.8 nM,97.1 nM,65 nM,83.4 nM
AUUAAUUUCAGAGGAUAUCGUAAUUUUAUUUAAUUUAUUCAUUUGUGCAGUGAUGUUGCUAAUAUUCGAGAAGGCUGAUUUAUAA [whbob_Ex_FMNB__2th223],142 nM,159 nM,70.8 nM,171 nM,65 nM
AUUAAUUUCAGAGGAUAUGCUUUAUUAUUAUUUUUAAAUAAUAUAAGCAGUGAUGUUGCUUUUUAUGCAGAAGGCUGAUUUAUAA [JR_SSFMNB_Sub016],137 nM,397 nM,383 nM,384 nM,360 nM
AUUAUAUAGGCGGCCGCCACUAGUGAUGUUAGUGACUAUAUGAAAACAUAUAGAAUAAAAUAAUAUAGGACCGGGCCAUAAUAUU [AstrosExTryB#4],498 nM,392 nM,423 nM,425 nM,471 nM
AUUAUAUAGGCGGCCGCCACUAGUGAUGUUAGUGACUUUAUGAAAACAUAAAGAAUAAAAUAAUAUAGGACCGGGCCAUAAUAUU [AstrosExTryB#5],475 nM,369 nM,450 nM,427 nM,432 nM
AUUCGUCUCUGAGGAUAUCAGAGGAGAGUGAUGUUCUCCCAUAGCCCAGUGAUGUUGGAUGCUAUCUGAGAAGGCAGUGGGCGAA [Same State FMN B GF 14],142 nM,203 nM,213 nM,226 nM,186 nM
AUUGCACCUGCGGCCGCCACUCACUCCGGGCUGCUGGCCAGUGAUGUUGGUACGGCUGCCGGUUAGAGGACCGGGCAGGAGCUAA [Esage],106 nM,113 nM,107 nM,106 nM,91.3 nM
AUUUAUUCGUACUACUAGUGAUGUUAGUAACGAGGACCGGUACGGCCGCCACUCGAUUUGGCGAUUUUGUAUUUUUUAUUCUAUA [JR_SSTryptoA_Sub011],324 nM,321 nM,359 nM,328 nM,192 nM
AUUUUGGUUUAGAGUGAUGUUCCUUGUAUUCGAGGACCGGUACGGCCGCCACUCGGAUAGAAAAGAAAAGAAAUGUUUGAUUUUU [BDazzled - #8 SS Tryptophan A],339 nM,219 nM,458 nM,260 nM,298 nM
AUUUUUUUAUCAGGAUAUUAGUGAUGUUUGUUUUUGUUAGUGAUGUUGAUAUUUGUUUUAUGUAUUUAAGAAGGGAUUGAGAUGU [sfsmullin],46.4 nM,15.5 nM,28.2 nM,19.9 nM,42.4 nM
AUUUUUUUGUCAGGAUAUUAGUAUGGUUUUGGUUUGUUAGUGAUGUUGAUAUUUUGUUUAUGUAUUUAAGAAGGGAUUUAGCGGU [gyhhgumullin],404 nM,290 nM,356 nM,447 nM,320 nM
CAAAACGAGUGAUGUUCGGACAACAACGUUAAGGAUAUACUUCUCUGUAGAAGGUAACAGUAUUUAUAUUUCAUCAACGAAAAUG [theeternabot_exclusion_KL_FMN_A_12],213 nM,183 nM,280 nM,248 nM,181 nM
